According to publication doi:10.1101/338061:

How the values were obtained:
MBD2 MBD = MBD2 MBD (Homo sapiens, UniProt Q9UBB5 143-220); assay: ITC
MeCP2 MBD = MeCP2 MBD (Homo sapiens, UniProt P51608 80-164); assay: ITC
MBD2 MBD R188A = MBD2 MBD R188A (Homo sapiens, UniProt Q9UBB5 143-220, R188A); assay: ITC
MBD2 MBD R166A = MBD2 MBD R166A (Homo sapiens, UniProt Q9UBB5 143-220, R166A); assay: ITC
MBD3 MBD = MBD3 MBD (Homo sapiens, UniProt O95983 1-71); assay: ITC
MBD1 MBD = target: T1, MBD1 MBD (Homo sapiens, UniProt Q9UIS9 1-77); assay: ITC
T1 sequence: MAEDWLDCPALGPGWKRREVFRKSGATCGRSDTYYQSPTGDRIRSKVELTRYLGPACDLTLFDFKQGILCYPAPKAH

MBD4 MBD = MBD4 MBD (Homo sapiens, UniProt O95243 55-152); assay: ITC
[1] = target: MBD3 MBD (crystallization) (Homo sapiens, UniProt O95983 1-71); assay: crystal structure
MBD3 MBD (crystallization), sequence (O95983 1-71): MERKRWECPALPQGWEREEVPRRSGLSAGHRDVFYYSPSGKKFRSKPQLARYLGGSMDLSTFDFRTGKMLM

MBD3 MBD, sequence (O95983 1-71): as above
MBD2 MBD, sequence (Q9UBB5 143-220): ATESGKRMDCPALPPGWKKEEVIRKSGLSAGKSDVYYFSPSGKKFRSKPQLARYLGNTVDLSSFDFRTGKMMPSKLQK
MeCP2 MBD, sequence (P51608 80-164): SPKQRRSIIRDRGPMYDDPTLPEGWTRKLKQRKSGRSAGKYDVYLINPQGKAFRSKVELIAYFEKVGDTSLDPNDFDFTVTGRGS
MBD4 MBD, sequence (O95243 55-152): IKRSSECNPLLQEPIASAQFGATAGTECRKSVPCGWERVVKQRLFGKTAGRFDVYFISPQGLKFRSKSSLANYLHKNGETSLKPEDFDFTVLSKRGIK
MBD2 MBD R166A, sequence (Q9UBB5 143-220 R166A): as the sequence (Q9UBB5 143-220) above, with R24A counted along it
MBD2 MBD R188A, sequence (Q9UBB5 143-220 R188A): as the sequence (Q9UBB5 143-220) above, with R46A counted along it

B1: hmCG (dsDNA)
DNA 1: GCCAGCGCTGGC
DNA 2: GCCAGCGCTGGC
modifications: 5hmC at position 6 of both strands
For B1, the Kd (MBD2 MBD) was 9.7 ± 2.3 µM and the Kd (MeCP2 MBD) was 32 ± 4 µM.

B2: GmCGC (dsDNA)
DNA 1: GCCAGCGCTGGC
DNA 2: GCCAGCGCTGGC
modifications: 5mC at position 6 of both strands
In the case of B2, the Kd (MBD2 MBD R188A) is reported as 5.6 ± 0.5 µM, the binding result (MBD2 MBD R166A) is reported as “no binding” and the Kd (MBD3 MBD) is reported as 5.2 ± 0.5 µM.

B3: AmCGT (mCG) (dsDNA)
DNA 1: GCCAACGTTGGC
DNA 2: GCCAACGTTGGC
modifications: 5mC at position 6 of both strands
Work on B3 yielded a Kd (MBD2 MBD) of 0.9 ± 0.2 µM, a Kd (MBD1 MBD) of 1 ± 0.1 µM and a Kd (MBD4 MBD) of 0.4 ± 0.1 µM. For the same binder, the Kd (MBD3 MBD) was 5.4 ± 1.2 µM and the Kd (MeCP2 MBD) was 1.2 ± 0.2 µM.

B4: mCG/TG (dsDNA)
DNA 1: GTCAACGTTACG
DNA 2: CGTAATGTTGAC
modifications: 5mC at position 6 of strand 1
B4 gave a Kd (MBD2 MBD) of 1.6 ± 0.2 µM, a Kd (MBD1 MBD) of 2.2 ± 0.3 µM and a Kd (MBD4 MBD) of 1.5 ± 0.3 µM. For the same binder, the Kd (MBD3 MBD) was 6.5 ± 1.2 µM and the Kd (MeCP2 MBD) was 1.2 ± 0.2 µM.

B5: AmCGC (dsDNA)
DNA 1: GCCAACGCTGGC
DNA 2: GCCAGCGTTGGC
modifications: 5mC at position 6 of both strands
B5: binds [1].
